Experimental data reported in publication PMC8808176 (The Journal of Biological Chemistry, 2021).

Molecular target: the molecule itself
Assay: cryo-EM structure

B1: full-length mouse TRPML2 (mmTRPML2) with N-terminal maltose-binding protein (natural protein, UniProt Q8K595-1 1-566, looked up)
chain: MPGDEETLDLPAWNRVPDLTWGPHHRSAMASLDSEVREECLREDLKFYFMSPCEKYRARRQIPWKLGLQILKIVMVTTQLVRFGLSNQLVVAFKEDNTVAFKHLFLKGFSGVDEDDYSCSIYTQENTYESIFFAIKQYRHLKNISLATLGYGESEDNRTGLKVCKQHYKTGAMFSSNETLNIDSDIETDCIHLDLQVLTTEPEDWAQTSFFRLDFYRLVQVDISFALKGIDLQAVHSREIPDCYLFQNTITFDNTAHSGKIKIYLNSEANIEECKNMNISGSTQRSTHYLLVFDVFVIMICLASLILCTRSIVLALRLRKRFLNFFLEKYKQRVCGADQWEFVNGWYVLVTISDLMTIIGSILKMEIKAKKLTNYDVCSILLGTSTLFVWVGVIRYLGYFQTYNVLILTMQASLPKVLRFCACAGMIYLGYTFCGWIVLGPYHEKFENLNIVAECLFSLVNGDDMFATFAQIQQKSILVWLFSRLYLYSFISLFIYMVLSLFIALITDSYHTIKKYQQHGFPETDLQKFLKESGSKDGYQKQPSALLSCLCCLRRRRSNDHLILID
- stoichiometry N: 4
